{
  "source": "patent US20250042970A1",
  "about": "(AURINIA PHARMACEUTICALS, published 2025)",
  "binders": {"B1": {"name": "FLAG-tagged cynomolgous APRIL (ligand, not shown: small tags and cut ends)", "chain": "KQKKQHSVLHLVPINATSKDDSDVTEVMWQPALRRGRGLQAQGYGVRIRDAGVYLLYSQVLFQDVTFTMGQVVSREGQGKQETLFRCIRSMPSHPDRAYNSCYSAGVFHLHQGDILSVIIPRARAKLNLSPHGTFLGFVKL", "notes": "FLAG-tagged, expressed with TPA signal peptide; also called cyAPRIL"}},
  "test_in_all_cases": "BIACORE SPR",
  "key": {"BAv66-Ig": {"molecular_target": "T1, BAv66-Ig (human, UniProt P01859-1 99-326 = IgG part)", "T1 construct": "domain: Fc; also called Variant BAv66-Ig", "T1 sequence (P01859 other isoform, or with tags, fused parts or gaps limits assumed)": "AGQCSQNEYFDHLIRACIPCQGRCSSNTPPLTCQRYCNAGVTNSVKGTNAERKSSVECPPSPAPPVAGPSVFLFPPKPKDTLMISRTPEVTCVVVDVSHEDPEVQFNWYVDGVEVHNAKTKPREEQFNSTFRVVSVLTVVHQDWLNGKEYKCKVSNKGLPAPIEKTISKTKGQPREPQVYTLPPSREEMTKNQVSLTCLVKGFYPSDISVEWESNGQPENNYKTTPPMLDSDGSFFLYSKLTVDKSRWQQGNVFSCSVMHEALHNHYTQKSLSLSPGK"}, "Variant BAv1-12-Ig": {"molecular_target": "T2, Variant BAv1-12-Ig (human, UniProt P01859-1 99-326 = IgG part)", "T2 construct": "domain: Fc; also called Variant 1-12-Ig", "T2 sequence (P01859 other isoform, or with tags, fused parts or gaps mutant limits assumed)": "as the sequence (P01859 other isoform, or with tags, fused parts or gaps limits assumed) above, with H12R, I14V, R15N, G22L counted along it"}, "Variant BAv3-10-Ig": {"molecular_target": "T3, Variant BAv3-10-Ig (human, UniProt P01859-1 99-326 = IgG part)", "T3 construct": "domain: Fc; also called Variant 3-10-Ig; BAv3-10-PIg18", "T3 sequence (P01859 other isoform, or with tags, fused parts or gaps mutant limits assumed)": "as the sequence (P01859 other isoform, or with tags, fused parts or gaps limits assumed) above, with H12R, G22L counted along it"}, "Variant BAv8-9-Ig": {"molecular_target": "T4, Variant BAv8-9-Ig (human, UniProt P01859-1 99-326 = IgG part)", "T4 construct": "domain: Fc; also called Variant 8-9-Ig; BAv8-9-PIg18", "T4 sequence (P01859 other isoform, or with tags, fused parts or gaps mutant limits assumed)": "as the sequence (P01859 other isoform, or with tags, fused parts or gaps limits assumed) above, with I14L, G22L counted along it"}, "Variant BAv8-10-Ig [1]": {"molecular_target": "T5, Variant BAv8-10-Ig (human, UniProt P01859-1 99-326 = IgG part)", "T5 construct": "domain: Fc; also called Variant 8-10-Ig; BAv8-10-PIg18", "T5 sequence (P01859 other isoform, or with tags, fused parts or gaps mutant limits assumed)": "as the sequence (P01859 other isoform, or with tags, fused parts or gaps limits assumed) above, with I14L, G22V counted along it"}, "Variant BAv9-1-Ig": {"molecular_target": "T6, Variant BAv9-1-Ig (human, UniProt P01859-1 99-326 = IgG part)", "T6 construct": "domain: Fc; also called Variant 9-1-Ig; BAv9-1-pIg18", "T6 sequence (P01859 other isoform, or with tags, fused parts or gaps mutant limits assumed)": "as the sequence (P01859 other isoform, or with tags, fused parts or gaps limits assumed) above, with G22L counted along it"}, "Variant BAv9-5-Ig": {"molecular_target": "T7, Variant BAv9-5-Ig (human, UniProt P01859-1 99-326 = IgG part)", "T7 construct": "domain: Fc; also called Variant 9-5-Ig; BAv9-5-PIg18", "T7 sequence (P01859 other isoform, or with tags, fused parts or gaps mutant limits assumed)": "as the sequence (P01859 other isoform, or with tags, fused parts or gaps limits assumed) above, with H12R, I14V, G22L counted along it"}, "Variant BAv11-6-Ig": {"molecular_target": "T8, Variant BAv11-6-Ig (human, UniProt P01859-1 99-326 = IgG part)", "T8 construct": "domain: Fc; also called Variant 11-6-Ig; BAv11-6-PIg18", "T8 sequence (P01859 other isoform, or with tags, fused parts or gaps mutant limits assumed)": "as the sequence (P01859 other isoform, or with tags, fused parts or gaps limits assumed) above, with H12R, I14L, G22V counted along it"}, "Variant 50238475-Ig [2]": {"molecular_target": "T9, Variant 50238475-Ig (human, UniProt P01859-1 99-326 = IgG part)", "T9 construct": "domain: Fc; also called Parent 9; Variant 50238475-PIg18", "T9 sequence (P01859 other isoform, or with tags, fused parts or gaps mutant limits assumed)": "as the sequence (P01859 other isoform, or with tags, fused parts or gaps limits assumed) above, with F10Y, P19S, G22I, T28N, L31P, T32I counted along it"}, "Variant 50240054-Ig": {"molecular_target": "T10, Variant 50240054-Ig (human, UniProt P01859-1 99-326 = IgG part)", "T10 construct": "domain: Fc; also called Parent 2", "T10 sequence (P01859 other isoform, or with tags, fused parts or gaps mutant limits assumed)": "as the sequence (P01859 other isoform, or with tags, fused parts or gaps limits assumed) above, with G2Q, Q6P, H12R, G22L, L31V, A39T counted along it", "method": "(§1) For human BAFF, cynomolgus monkey APRIL, and mouse APRIL measurements, mouse monoclonal antibody (IgG1) anti-FLAG M2 (Sigma Aldrich, Cat. No. F1804) was immobilized on CM3 sensor chips (GE Healthcare, Cat. No. BR-1005-41) according to the manufacturer's protocol. Antibody was diluted to 30 μg/ml in immobilization buffer (10 mM pH 5±0.20; GE Healthcare; GE Healthcare, Catalog No. BR-1003-51). […] Unreacted sites were quenched with 35 μl of 1M ethanolamine-HCl, pH 8.5 (GE Healthcare, GE Healthcare, Cat. No. BR-1000-50). This procedure typically yielded 3,000-4,000 response units (RU) of coupled antibody.\n(§2) The fusion polypeptides were diluted in HBS-EP buffer and flowed over ligand-coated sensor chips. The variant BCMA-Ig and surrogate control fusion proteins were injected at three concentrations (1.5 nM, 15 nM, and 150 nM at 30 μl/min for 2 minutes per association phase) in a single binding cycle, followed by a 20 minute incubation with HBS-EP buffer containing no protein at the same flow rate. A similar protocol was followed for Z-TACI-Ig, except that the injections were at 4.5 nM, 45 nM, and 450 nM.\n(§3) Sequence optimization involved generating revertants from the variant BCMA ECD-Ig molecules using standard site-directed mutagenesis methods such as by SOEing as described herein above. Single as well as multiple revertants from twelve different variant-BCMA-pIg18 were generated, cloned in the pcDNA3.1 vector (Life Technologies, as described in Example 6), expressed and purified as described in Examples 6-8. The resulting proteins were assayed for their binding characteristics using Surface Plasmon Resonance as described in Example 9."}, "Variant 50237847-Ig": {"molecular_target": "T11, Variant 50237847-Ig (human, UniProt P01859-1 99-326 = IgG part)", "T11 construct": "domain: Fc; also called Parent 3", "T11 sequence (P01859 other isoform, or with tags, fused parts or gaps mutant limits assumed)": "as the sequence (P01859 other isoform, or with tags, fused parts or gaps limits assumed) above, with F10Y, I14L, I18V, P19S, Q21H, G22V, T28N, L31A, T32I counted along it", "method": "as §1, §2, §3"}, "Variant 50237854-Ig": {"molecular_target": "T12, Variant 50237854-Ig (human, UniProt P01859-1 99-326 = IgG part)", "T12 construct": "domain: Fc; also called Parent 4", "T12 sequence (P01859 other isoform, or with tags, fused parts or gaps mutant limits assumed)": "as the sequence (P01859 other isoform, or with tags, fused parts or gaps limits assumed) above, with Q21D, G22V, T28N, L31V counted along it", "method": "as §1, §2, §3"}, "Variant 50239698-Ig": {"molecular_target": "T13, Variant 50239698-Ig (human, UniProt P01859-1 99-326 = IgG part)", "T13 construct": "domain: Fc; also called Parent 5", "T13 sequence (P01859 other isoform, or with tags, fused parts or gaps mutant limits assumed)": "as the sequence (P01859 other isoform, or with tags, fused parts or gaps limits assumed) above, with G2R, F10Y, H12R, I14L, A16S, I18V, Q21H, G22V, T28N, L31V counted along it", "method": "as §1, §2, §3"}, "Variant 50234224-Ig": {"molecular_target": "T14, Variant 50234224-Ig (human, UniProt P01859-1 99-326 = IgG part)", "T14 construct": "domain: Fc; also called Parent 6", "T14 sequence (P01859 other isoform, or with tags, fused parts or gaps mutant limits assumed)": "as the sequence (P01859 other isoform, or with tags, fused parts or gaps limits assumed) above, with E8D, F10Y, I14L, G22L, T28N counted along it", "method": "as §1, §2, §3"}, "Variant 50237844-Ig": {"molecular_target": "T15, Variant 50237844-Ig (human, UniProt P01859-1 99-326 = IgG part)", "T15 construct": "domain: Fc; also called Parent 7", "T15 sequence (P01859 other isoform, or with tags, fused parts or gaps mutant limits assumed)": "as the sequence (P01859 other isoform, or with tags, fused parts or gaps limits assumed) above, with N7S, F10Y, H12R, G22L, T28N, L31V, T32I counted along it", "method": "as §1, §2, §3"}, "Variant 50238504R-Ig": {"molecular_target": "T16, Variant 50238504R-Ig (human, UniProt P01859-1 99-326 = IgG part)", "T16 construct": "domain: Fc; also called Parent 8", "T16 sequence (P01859 other isoform, or with tags, fused parts or gaps mutant limits assumed)": "as the sequence (P01859 other isoform, or with tags, fused parts or gaps limits assumed) above, with F10Y, H12R, I18L, Q21H, G22V, L31A counted along it", "method": "as §1, §2, §3"}, "Variant 50238475-Ig [3]": {"molecular_target": "T9, Variant 50238475-Ig", "method": "as §1, §2, §3", "remark": "listed apart in the source"}, "Variant 50239040-Ig": {"molecular_target": "T17, Variant 50239040-Ig (human, UniProt P01859-1 99-326 = IgG part)", "T17 construct": "domain: Fc; also called Parent 10", "T17 sequence (P01859 other isoform, or with tags, fused parts or gaps mutant limits assumed)": "as the sequence (P01859 other isoform, or with tags, fused parts or gaps limits assumed) above, with G2R, Q6P, N7S, F10Y, A16S, I18V, G22L, L31V, N38D counted along it", "method": "as §1, §2, §3"}, "Variant 50238494-Ig": {"molecular_target": "T18, Variant 50238494-Ig (human, UniProt P01859-1 99-326 = IgG part)", "T18 construct": "domain: Fc; also called Parent 11", "T18 sequence (P01859 other isoform, or with tags, fused parts or gaps mutant limits assumed)": "as the sequence (P01859 other isoform, or with tags, fused parts or gaps limits assumed) above, with N7S, F10Y, H12R, R15H, I18V, G22L, T28N, L31A counted along it", "method": "as §1, §2, §3"}, "Variant 50239978-Ig": {"molecular_target": "T19, Variant 50239978-Ig (human, UniProt P01859-1 99-326 = IgG part)", "T19 construct": "domain: Fc; also called Parent 12", "T19 sequence (P01859 other isoform, or with tags, fused parts or gaps mutant limits assumed)": "as the sequence (P01859 other isoform, or with tags, fused parts or gaps limits assumed) above, with G2R, Q6P, F10Y, H12S, I18V, G22L, T28N, L31V counted along it", "method": "as §1, §2, §3"}, "Variant 50238779-Ig": {"molecular_target": "T20, Variant 50238779-Ig (human, UniProt P01859-1 99-326 = IgG part)", "T20 construct": "domain: Fc; also called Parent 1", "T20 sequence (P01859 other isoform, or with tags, fused parts or gaps mutant limits assumed)": "as the sequence (P01859 other isoform, or with tags, fused parts or gaps limits assumed) above, with G2Q, H12R, I14V, R15N, A16S, I18V, Q21R, G22L, T28N, R35H counted along it", "method": "as §1, §2, §3"}, "Variant BAv8-10-Ig [4]": {"molecular_target": "T5, Variant BAv8-10-Ig", "method": "as §1, §2\nUsing available information from the structures and published literature, several residues in BAv8-10 were targeted for substitution with conserved as well as non-conserved residues and their effect on BAFF and APRIL binding was assessed by BIACORE.", "remark": "listed apart in the source"}},
  "note": "Like-named read-outs stand apart in the source and are kept apart here.",
  "data": [
    {"binder": "B1", "values": [
      {"measurement": "Kd", "setting": "BAv66-Ig", "value": 62.6, "unit": "nM"},
      {"measurement": "Kd", "setting": "Variant BAv1-12-Ig", "value": 0.0101, "unit": "nM"},
      {"measurement": "Kd", "setting": "Variant BAv3-10-Ig", "value": 0.0139, "unit": "nM"},
      {"measurement": "Kd", "setting": "Variant BAv8-9-Ig", "value": 0.0226, "unit": "nM"},
      {"measurement": "Kd", "setting": "Variant BAv8-10-Ig [1]", "value": 0.0539, "unit": "nM"},
      {"measurement": "Kd", "setting": "Variant BAv9-1-Ig", "value": 0.0214, "unit": "nM"},
      {"measurement": "Kd", "setting": "Variant BAv9-5-Ig", "value": 0.0284, "unit": "nM"},
      {"measurement": "Kd", "setting": "Variant BAv11-6-Ig", "value": 0.0244, "unit": "nM"},
      {"measurement": "Kd", "setting": "Variant 50238475-Ig [2]", "value": 0.0789, "unit": "nM"},
      {"measurement": "Kd", "setting": "Variant 50240054-Ig", "value": 0.023, "unit": "nM"},
      {"measurement": "Kd", "setting": "Variant 50237847-Ig", "value": 0.037, "unit": "nM"},
      {"measurement": "Kd", "setting": "Variant 50237854-Ig", "value": 0.059, "unit": "nM"},
      {"measurement": "Kd", "setting": "Variant 50239698-Ig", "value": 0.017, "unit": "nM"},
      {"measurement": "Kd", "setting": "Variant 50234224-Ig", "value": 0.039, "unit": "nM"},
      {"measurement": "Kd", "setting": "Variant 50237844-Ig", "value": 0.028, "unit": "nM"},
      {"measurement": "Kd", "setting": "Variant 50238504R-Ig", "value": 0.072, "unit": "nM"},
      {"measurement": "Kd", "setting": "Variant 50238475-Ig [3]", "value": 0.042, "unit": "nM"},
      {"measurement": "Kd", "setting": "Variant 50239040-Ig", "value": 0.054, "unit": "nM"},
      {"measurement": "Kd", "setting": "Variant 50238494-Ig", "value": 0.012, "unit": "nM"},
      {"measurement": "Kd", "setting": "Variant 50239978-Ig", "value": 0.024, "unit": "nM"},
      {"measurement": "Kd", "setting": "Variant 50238779-Ig", "value": 0.028, "unit": "nM"},
      {"measurement": "Kd", "setting": "Variant BAv8-10-Ig [4]", "value": 0.076, "unit": "nM"}
    ]}
  ]
}
